# Laboratory results published in patent publication US20240092836A1.
# Bridges are numbered along the chain shown (N, C = ends). Primed or numbered codes have the meaning given here. Where no end group is shown, it is not given here. The star is where a group is joined. Biotin = O=C1N[C@H]2[C@H](CS[C@H]2CCCCC(=O)*)N1; PEG4 = NCCOCCOCCOCCOCCC(=O)O; PEG4′ = not defined here
# Target: Recombinant Human CTLA4-Fc chimera (R&D systems) (human) (UniProt P16410)
# Experiment: ELISA EC50, purified MBP fusions
row,fold improvement of affinity over the original clone,Binder
1,50 fold,"GGCMHPFLPVVSRHFCGR (peptide, not shown: large carriers; small tags and cut ends) [C4-302mat-3-1-12]"
2,50 fold,"GGCLHPFLPIVSHHFCGR (peptide, not shown: large carriers; small tags and cut ends) [C4-302mat-3-100-44]"

# Target: Recombinant Human CTLA4-Fc chimera (R&D systems) (human) (UniProt P16410)
# Experiment: BLItz (BLI), synthetic biotinylated peptides
row,fold higher affinity than the original clone (H12SSI-Ctla4-3-02),Binder
1,3 fold,{Biotin-PEG4}-KCMHPFLPIVSHHFCER (disulfide 2-15) [biotinylated clone #19: Biotin-PEG4-…]

# Target: Recombinant Human CTLA4-Fc chimera (R&D systems) (human) (UniProt P16410)
# Experiment: ELISA, purified MBP fusion on immobilised CTLA-4
row,Binder,EC50
1,"GGCMHPFLLVVSHHFCGG (peptide, not shown: large carriers; small tags and cut ends) [H12SSI-Ctla4-3-02 (MBP fusion)]",3920 nM
2,"GGCMHPFLPVVSHHFCGG (peptide, not shown: large carriers; small tags and cut ends) [C4-302mat-1-1-24]",1040 nM
3,"GGCMHPFLQVVSHHFCGG (peptide, not shown: large carriers; small tags and cut ends) [C4-302mat-2-100-4]",4180 nM
4,"GGCLHPFLPLVSHHFCGG (peptide, not shown: large carriers; small tags and cut ends) [C4-302mat-2-1-38]",867 nM
5,"GGCMHPFLRVVSHHFCGG (peptide, not shown: large carriers; small tags and cut ends) [C4-302mat-1-1-37]",1490 nM
6,"GGCMHPYLPVISHHFCGG (peptide, not shown: large carriers; small tags and cut ends) [C4-302mat-2-1-27]",1640 nM
7,"GGCKHPYLPVASHHFCRG (peptide, not shown: large carriers; small tags and cut ends) [C4-302mat-3-1-10]",703 nM
8,"GGCVHPFLPVVSHHFCRG (peptide, not shown: large carriers; small tags and cut ends) [C4-302mat-3-100-20]",889 nM
9,"GGCKHPFLPVVSHHFCGG (peptide, not shown: large carriers; small tags and cut ends) [C4-302mat-3-100-9]",832 nM
10,"GGCMHPFLPVVSRHFCGG (peptide, not shown: large carriers; small tags and cut ends) [C4-302mat-3-1-5]",674 nM
11,"GGCMHPFLPVTSHHFCGG (peptide, not shown: large carriers; small tags and cut ends) [C4-302mat-2-1-3]",826 nM

# Further lines, results first:
row,EC50,Binder
1,668 nM,"GGCMHPFLQTVSHHFCGG (peptide, not shown: large carriers; small tags and cut ends) [C4-302mat-3-1-35]"
2,474 nM,"GGCLHPFLPVVSHHFCGD (peptide, not shown: large carriers; small tags and cut ends) [C4-302mat-2-1-2]"
3,369 nM,"GGCMHPFLPVVSHHFCRG (peptide, not shown: large carriers; small tags and cut ends) [C4-302mat-2-100-18]"
4,352 nM,"GGCMHPFLPVASHHFCAG (peptide, not shown: large carriers; small tags and cut ends) [C4-302mat-3-100-27]"
5,342 nM,"GSCMHPFLPVASRHFCGR (peptide, not shown: large carriers; small tags and cut ends) [C4-302mat-3-1-31]"
6,322 nM,"GGCMHPFLPILSHHFCAG (peptide, not shown: large carriers; small tags and cut ends) [C4-302mat-3-1-32]"
7,300 nM,"GGCRHPFLPIVSRHFCRG (peptide, not shown: large carriers; small tags and cut ends) [C4-302mat-3-1-45]"
8,288 nM,"GGCMHPFLPVASHHFCGG (peptide, not shown: large carriers; small tags and cut ends) [C4-302mat-1-1-35]"
9,225 nM,"GGCMHPFLPVVSHHFCGR (peptide, not shown: large carriers; small tags and cut ends) [C4-302mat-3-100-37]"
10,222 nM,"GGCMHPFLPVASHHFCGR (peptide, not shown: large carriers; small tags and cut ends) [C4-302mat-3-1-22]"
11,85 nM,"GGCMHPFLPVVSRHFCGR (peptide, not shown: large carriers; small tags and cut ends) [C4-302mat-3-1-12]"
12,82 nM,"GGCLHPFLPIVSHHFCGR (peptide, not shown: large carriers; small tags and cut ends) [C4-302mat-3-100-44]"

# Target: Recombinant Human CTLA4-Fc chimera (R&D systems) (human) (UniProt P16410)
# Experiment: BLItz (BLI), biotinylated CTLA-4 on SA chip, MBP fusion as analyte
Kd,koff,kon,Binder
3880 nM,0.0123 s⁻¹,3180 M⁻¹ s⁻¹,"GGCMHPFLLVVSHHFCGG (peptide, not shown: large carriers; small tags and cut ends) [H12SSI-Ctla4-3-02 (MBP fusion)]"

# Target: Recombinant Human CTLA4-Fc chimera (R&D systems) (human) (UniProt P16410)
# Experiment: BLItz (BLI), biotinylated peptide on SA chip, CTLA-4 protein as analyte
Kd,koff,kon,Binder
191 nM,0.022 s⁻¹,115000 M⁻¹ s⁻¹,{Biotin-PEG4′}-KCMHPFLLVVSHHFC (disulfide 2-15) [biotinylated H12SSI-Ctla4-3-02: Biotin-PEG4-…]
61.8 nM,0.0128 s⁻¹,208000 M⁻¹ s⁻¹,{Biotin-PEG4}-KCMHPFLPIVSHHFCER (disulfide 2-15) [biotinylated clone #19: Biotin-PEG4-…]
